B1: AUP1 (parent)
chain: FCASTRLPPTPLLLFPEEEATNGR

Variants of: B1
Assay: protein stability index of a GFP-peptide fusion (GPS, HEK-293T) (PSI 1-6); higher = more stable
Conditions: c terminus: a fixed tail appended
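Further: lentivirally expressed fusions sorted by FACS into six bins by GFP to DsRed ratio, PSI derived from sequencing read proportions per bin multiplied by bin number.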

Q: For FPASTRLPPTPLLLFPEEEATNGR [C2P], which protein stability index is on record?
A: 3.92

Q: With FGASTRLPPTPLLLFPEEEATNGR [C2G] as the variant, how does the protein stability index read?
A: 4.33

Q: Which protein stability index does the source give for FYASTRLPPTPLLLFPEEEATNGR [C2Y] here?
A: 3.31

Q: For FAASTRLPPTPLLLFPEEEATNGR [C2A], which protein stability index is on record?
A: 3.42

Q: For FKASTRLPPTPLLLFPEEEATNGR [C2K], which protein stability index is on record?
A: 4.06

Q: For FQASTRLPPTPLLLFPEEEATNGR [C2Q], which protein stability index is on record?
A: 3.58

Q: Which protein stability index does the source give for FFASTRLPPTPLLLFPEEEATNGR [C2F] here?
A: 3.1

Q: For FHASTRLPPTPLLLFPEEEATNGR [C2H], which protein stability index is on record?
A: 2.17

Q: With FCASPRLPPTPLLLFPEEEATNGR [T5P] as the variant, how does the protein stability index read?
A: 3.16

Q: With FCASCRLPPTPLLLFPEEEATNGR [T5C] as the variant, how does the protein stability index read?
A: 1.86

Q: Which protein stability index does the source give for FCASSRLPPTPLLLFPEEEATNGR [T5S] here?
A: 2.64

Q: Which protein stability index does the source give for FCASLRLPPTPLLLFPEEEATNGR [T5L] here?
A: 2.11

Q: For FCASHRLPPTPLLLFPEEEATNGR [T5H], which protein stability index is on record?
A: 2.66

Q: For FCASYRLPPTPLLLFPEEEATNGR [T5Y], which protein stability index is on record?
A: 2.27

Q: For FCASGRLPPTPLLLFPEEEATNGR [T5G], which protein stability index is on record?
A: 2.7

Q: With FCASQRLPPTPLLLFPEEEATNGR [T5Q] as the variant, how does the protein stability index read?
A: 2.86

Q: With FCASIRLPPTPLLLFPEEEATNGR [T5I] as the variant, how does the protein stability index read?
A: 2.22

Q: With FCASVRLPPTPLLLFPEEEATNGR [T5V] as the variant, how does the protein stability index read?
A: 2.83

Q: With FCASARLPPTPLLLFPEEEATNGR [T5A] as the variant, how does the protein stability index read?
A: 3.19

Q: Which protein stability index does the source give for FCASKRLPPTPLLLFPEEEATNGR [T5K] here?
A: 2.64

Q: With FCASRRLPPTPLLLFPEEEATNGR [T5R] as the variant, how does the protein stability index read?
A: 1.99

Q: For FCASERLPPTPLLLFPEEEATNGR [T5E], which protein stability index is on record?
A: 3.77

Q: Which protein stability index does the source give for FCASDRLPPTPLLLFPEEEATNGR [T5D] here?
A: 3.44

Q: Which protein stability index does the source give for FCASNRLPPTPLLLFPEEEATNGR [T5N] here?
A: 3.05

Q: For FCASMRLPPTPLLLFPEEEATNGR [T5M], which protein stability index is on record?
A: 2.96

Q: Which protein stability index does the source give for FCASWRLPPTPLLLFPEEEATNGR [T5W] here?
A: 2.49

Q: Which protein stability index does the source give for FCASFRLPPTPLLLFPEEEATNGR [T5F] here?
A: 1.81

Q: Which protein stability index does the source give for FCASTELPPTPLLLFPEEEATNGR [R6E] here?
A: 4.11

Q: With FCASTCLPPTPLLLFPEEEATNGR [R6C] as the variant, how does the protein stability index read?
A: 2.7

Q: For FCASTYLPPTPLLLFPEEEATNGR [R6Y], which protein stability index is on record?
A: 2.33

Q: With FCASTSLPPTPLLLFPEEEATNGR [R6S] as the variant, how does the protein stability index read?
A: 3.29

Q: For FCASTWLPPTPLLLFPEEEATNGR [R6W], which protein stability index is on record?
A: 2.12

Q: Which protein stability index does the source give for FCASTQLPPTPLLLFPEEEATNGR [R6Q] here?
A: 3.49

Q: Which protein stability index does the source give for FCASTVLPPTPLLLFPEEEATNGR [R6V] here?
A: 3.42

Q: With FCASTKLPPTPLLLFPEEEATNGR [R6K] as the variant, how does the protein stability index read?
A: 3.09

Q: For FCASTHLPPTPLLLFPEEEATNGR [R6H], which protein stability index is on record?
A: 3.25

Q: For FCASTGLPPTPLLLFPEEEATNGR [R6G], which protein stability index is on record?
A: 2.7

Q: Which protein stability index does the source give for FCASTNLPPTPLLLFPEEEATNGR [R6N] here?
A: 3.5

Q: With FCASTFLPPTPLLLFPEEEATNGR [R6F] as the variant, how does the protein stability index read?
A: 2.2

Q: With FCASTLLPPTPLLLFPEEEATNGR [R6L] as the variant, how does the protein stability index read?
A: 2.73

Q: Which protein stability index does the source give for FCASTDLPPTPLLLFPEEEATNGR [R6D] here?
A: 3.9

Q: With FCASTILPPTPLLLFPEEEATNGR [R6I] as the variant, how does the protein stability index read?
A: 2.46

Q: For FCASTALPPTPLLLFPEEEATNGR [R6A], which protein stability index is on record?
A: 3.37

Q: Which protein stability index does the source give for FCASTMLPPTPLLLFPEEEATNGR [R6M] here?
A: 3.27

Q: With FCACTRLPPTPLLLFPEEEATNGR [S4C] as the variant, how does the protein stability index read?
A: 2.54

Q: Which protein stability index does the source give for FCADTRLPPTPLLLFPEEEATNGR [S4D] here?
A: 3.6

Q: For FCAKTRLPPTPLLLFPEEEATNGR [S4K], which protein stability index is on record?
A: 3.01

Q: Which protein stability index does the source give for FCAETRLPPTPLLLFPEEEATNGR [S4E] here?
A: 3.52

Q: Which protein stability index does the source give for FCATTRLPPTPLLLFPEEEATNGR [S4T] here?
A: 2.76

Q: For FCANTRLPPTPLLLFPEEEATNGR [S4N], which protein stability index is on record?
A: 2.94

Q: Which protein stability index does the source give for FCALTRLPPTPLLLFPEEEATNGR [S4L] here?
A: 2.85

Q: For FCAHTRLPPTPLLLFPEEEATNGR [S4H], which protein stability index is on record?
A: 3.05

Q: Which protein stability index does the source give for FCAQTRLPPTPLLLFPEEEATNGR [S4Q] here?
A: 3.36

Q: With FCAMTRLPPTPLLLFPEEEATNGR [S4M] as the variant, how does the protein stability index read?
A: 2.59

Q: Which protein stability index does the source give for FCAWTRLPPTPLLLFPEEEATNGR [S4W] here?
A: 3.38

Q: Which protein stability index does the source give for FCAYTRLPPTPLLLFPEEEATNGR [S4Y] here?
A: 2.28

Q: Which protein stability index does the source give for FCAFTRLPPTPLLLFPEEEATNGR [S4F] here?
A: 2.54

Q: For FCAITRLPPTPLLLFPEEEATNGR [S4I], which protein stability index is on record?
A: 2.49

Q: Which protein stability index does the source give for FCAGTRLPPTPLLLFPEEEATNGR [S4G] here?
A: 2.85

Q: With FCAATRLPPTPLLLFPEEEATNGR [S4A] as the variant, how does the protein stability index read?
A: 2.8

Q: With FCAVTRLPPTPLLLFPEEEATNGR [S4V] as the variant, how does the protein stability index read?
A: 3.08

Q: Which protein stability index does the source give for FCARTRLPPTPLLLFPEEEATNGR [S4R] here?
A: 3.03

Q: Which protein stability index does the source give for FCASTRLPPTLLLLFPEEEATNGR [P11L] here?
A: 1.63

Q: For FCASTRLPPTALLLFPEEEATNGR [P11A], which protein stability index is on record?
A: 2.39

Q: With FCASTRLPPTKLLLFPEEEATNGR [P11K] as the variant, how does the protein stability index read?
A: 2.39

Q: Which protein stability index does the source give for FCASTRLPPTDLLLFPEEEATNGR [P11D] here?
A: 2.99

Q: For FCASTRLPPTMLLLFPEEEATNGR [P11M], which protein stability index is on record?
A: 2.6

Q: For FCASTRLPPTRLLLFPEEEATNGR [P11R], which protein stability index is on record?
A: 2.06

Q: For FCASTRLPPTELLLFPEEEATNGR [P11E], which protein stability index is on record?
A: 3.4

Q: With FCASTRLPPTFLLLFPEEEATNGR [P11F] as the variant, how does the protein stability index read?
A: 2.08

Q: For FCASTRLPPTQLLLFPEEEATNGR [P11Q], which protein stability index is on record?
A: 2.58

Q: With FCASTRLPPTNLLLFPEEEATNGR [P11N] as the variant, how does the protein stability index read?
A: 2.83

Q: For FCASTRLPPTCLLLFPEEEATNGR [P11C], which protein stability index is on record?
A: 2.57

Q: For FCASTRLPPTHLLLFPEEEATNGR [P11H], which protein stability index is on record?
A: 2.33

Q: For FCASTRLPPTGLLLFPEEEATNGR [P11G], which protein stability index is on record?
A: 2.54

Q: Which protein stability index does the source give for FCASTRLPPTILLLFPEEEATNGR [P11I] here?
A: 2.04

Q: For FCASTRLPPKPLLLFPEEEATNGR [T10K], which protein stability index is on record?
A: 3.04

Q: For FCASTRLPPFPLLLFPEEEATNGR [T10F], which protein stability index is on record?
A: 1.32

Q: Which protein stability index does the source give for FCASTRLPPIPLLLFPEEEATNGR [T10I] here?
A: 2.52

Q: For FCASTRLPPSPLLLFPEEEATNGR [T10S], which protein stability index is on record?
A: 2.8

Q: Which protein stability index does the source give for FCASTRLPPGPLLLFPEEEATNGR [T10G] here?
A: 2.53

Q: For FCASTRLPPRPLLLFPEEEATNGR [T10R], which protein stability index is on record?
A: 2.87

Q: For FCASTRLPPAPLLLFPEEEATNGR [T10A], which protein stability index is on record?
A: 3.13

Q: With FCASTRLPPEPLLLFPEEEATNGR [T10E] as the variant, how does the protein stability index read?
A: 3.23

Q: For FCASTRLPPHPLLLFPEEEATNGR [T10H], which protein stability index is on record?
A: 1.68

Q: With FCASTRLPPDPLLLFPEEEATNGR [T10D] as the variant, how does the protein stability index read?
A: 2.84

Q: Which protein stability index does the source give for FCASTRLPPVPLLLFPEEEATNGR [T10V] here?
A: 2.39

Q: For FCASTRLPPMPLLLFPEEEATNGR [T10M], which protein stability index is on record?
A: 2.28

Q: Which protein stability index does the source give for FCASTRLPPQPLLLFPEEEATNGR [T10Q] here?
A: 3.13

Q: With FCASTRLPPLPLLLFPEEEATNGR [T10L] as the variant, how does the protein stability index read?
A: 2.23

Q: With FCASTRLPPWPLLLFPEEEATNGR [T10W] as the variant, how does the protein stability index read?
A: 2.33

Q: For FCASTRLPPYPLLLFPEEEATNGR [T10Y], which protein stability index is on record?
A: 1.99

Q: For FCASTRLPPNPLLLFPEEEATNGR [T10N], which protein stability index is on record?
A: 2.92

Q: Which protein stability index does the source give for FCASTRLPPCPLLLFPEEEATNGR [T10C] here?
A: 2.33
